Measurements taken from patent publication US9745384B2, “Peptides useful for modulating histone demethylase function” (The Brigham and Women's Hospital, Inc., priority 2012, dated 2017).
Ends that are not written are not given here.

T1: LSD2 (residues 51-822) (Homo sapiens, UniProt Q8NB78)
T1 construct: Human LSD2 (residues 51-822) was subcloned into a pFastBacl derivative; His6 (cleaved yes); made in house; host or cells: Sf9 insect cells (baculovirus)
T1 sequence (Q8NB78 51-822): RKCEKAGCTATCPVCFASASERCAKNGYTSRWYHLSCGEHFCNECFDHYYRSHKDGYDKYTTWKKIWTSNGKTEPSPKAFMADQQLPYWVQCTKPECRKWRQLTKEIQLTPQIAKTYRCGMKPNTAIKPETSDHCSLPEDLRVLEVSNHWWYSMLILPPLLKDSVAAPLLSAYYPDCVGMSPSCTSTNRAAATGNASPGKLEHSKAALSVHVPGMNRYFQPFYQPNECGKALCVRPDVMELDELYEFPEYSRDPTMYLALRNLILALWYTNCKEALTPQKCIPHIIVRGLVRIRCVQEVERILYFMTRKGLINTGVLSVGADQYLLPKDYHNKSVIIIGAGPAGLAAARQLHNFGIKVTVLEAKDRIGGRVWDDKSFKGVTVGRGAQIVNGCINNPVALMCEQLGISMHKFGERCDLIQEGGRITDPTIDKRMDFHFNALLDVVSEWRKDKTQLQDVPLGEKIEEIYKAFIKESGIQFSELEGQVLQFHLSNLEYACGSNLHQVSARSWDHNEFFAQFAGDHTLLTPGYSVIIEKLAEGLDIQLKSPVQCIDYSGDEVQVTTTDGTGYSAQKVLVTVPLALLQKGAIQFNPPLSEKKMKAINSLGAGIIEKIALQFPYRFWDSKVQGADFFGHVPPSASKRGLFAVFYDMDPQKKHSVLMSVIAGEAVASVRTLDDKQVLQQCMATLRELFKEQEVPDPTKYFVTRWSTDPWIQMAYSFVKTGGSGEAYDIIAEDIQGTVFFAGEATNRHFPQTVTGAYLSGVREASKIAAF

T2: His-LSD2 (Homo sapiens, UniProt Q8NB78)
T2 construct: typically 0.5 μg full-length His-LSD2; made in house; host or cells: Sf9 insect cells
T2 sequence (Q8NB78 1-822): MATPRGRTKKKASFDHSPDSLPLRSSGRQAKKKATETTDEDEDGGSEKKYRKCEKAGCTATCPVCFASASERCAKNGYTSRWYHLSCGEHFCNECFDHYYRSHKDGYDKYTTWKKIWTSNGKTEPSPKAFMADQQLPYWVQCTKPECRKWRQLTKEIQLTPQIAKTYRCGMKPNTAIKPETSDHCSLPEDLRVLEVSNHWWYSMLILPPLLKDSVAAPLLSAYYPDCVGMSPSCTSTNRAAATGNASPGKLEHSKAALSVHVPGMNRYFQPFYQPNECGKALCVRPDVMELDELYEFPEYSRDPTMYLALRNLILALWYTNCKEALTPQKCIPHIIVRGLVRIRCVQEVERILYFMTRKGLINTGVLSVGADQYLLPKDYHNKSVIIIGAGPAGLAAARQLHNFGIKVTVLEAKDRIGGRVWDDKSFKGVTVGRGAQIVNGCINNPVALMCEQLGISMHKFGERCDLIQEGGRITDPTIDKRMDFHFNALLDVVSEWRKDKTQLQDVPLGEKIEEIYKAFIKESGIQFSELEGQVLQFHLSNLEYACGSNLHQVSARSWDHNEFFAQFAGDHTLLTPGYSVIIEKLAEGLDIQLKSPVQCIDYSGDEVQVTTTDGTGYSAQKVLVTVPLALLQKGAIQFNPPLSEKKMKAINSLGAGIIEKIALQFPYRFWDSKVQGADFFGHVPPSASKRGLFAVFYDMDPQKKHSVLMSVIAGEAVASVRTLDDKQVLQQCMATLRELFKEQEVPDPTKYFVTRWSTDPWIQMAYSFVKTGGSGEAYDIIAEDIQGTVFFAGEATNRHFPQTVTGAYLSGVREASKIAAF


Key:
[1] = molecular target: T1, LSD2 (residues 51-822); experiment: ITC binding of wild-type and mutant NPAC peptides (residues 214-225) with LSD2; conditions: 15 °C; 3 mM NPAC peptide injected into 0.2 mM LSD2
Procedure: All proteins and peptides were prepared in 10 mM HEPES, pH 8.0, and 0.1 M NaCl. The data were fitted by software Origin 7.0.

[2] = molecular target: T2, His-LSD2; experiment: Nucleosome demethylation assay (NPAC cofactor activity for LSD2, immunoblot); assay type: biochemical; conditions: threshold dosage of His-LSD2; nucleosomes purified from HeLa
Procedure: For nucleosome demethylation assays, typically 0.5 μg full-length His-LSD2, 1 μg NPAC protein or peptides, and 2 μg nucleosomes purified from HeLa were used, and demethylation efficiency was analyzed by SDS-PAGE electrophoresis and immunoblot using methylation specific anti-histone H3 antibodies as previously described (Shi et al. 2004).

[3] = molecular target: T2, His-LSD2; experiment: GST-pulldown of His-LSD2 by GST-NPAC proteins; assay type: binding; conditions: coomassie blue staining
Procedure: […] GST or GST-NPAC fusion proteins were bound to glutathione agarose, and were incubated with 2 μg full-length His-LSD2 overnight in 50 mM NaPO4 pH 7.4, 150 mM NaCl, 0.5% NP-40, 5% glycerol, 10 μM ZnSO4, 1 mM MgCl2, 1 mM DTT, 0.1 mM PMSF at 4° C. After washed 4 times with same buffer at 4° C., glutathione agarose beads were boiled in 1×SDS sample loading buffer. Elute was resolved on a 15% SDS-PAGE gel and stained by coomassie blue.

Molecule | Δ H [1] [kcal/mol] | Δ S [1] [cal/mol/deg] | Cofactor activity: stimulation of LSD2 demethylation of nucleosomal H3K4me2 [2] | LSD2 binding (GST-pulldown) [3]
CC(C)C[C@H](NC(=O)[C@H](Cc1ccccc1)NC(=O)[C@H](Cc1c[nH]cn1)NC(=O)[C@H](Cc1c[nH]cn1)NC(=O)[C@H](C)NC(=O)[C@H](C)NC(=O)[C@@H]1CCCN1C(=O)[C@H](C)N)C(=O)N[C@@H](CC(C)C)C(=O)N[C@@H](CO)C(=O)N[C@@H](CCC(N)=O)C(=O)N[C@H](C(=O)O)[C@@H](C)O [NPAC.214-225.M8] | -8.288 ± 0.101 | −1.3 | – | –
NP.d7: NPAC residues 152-186, containing the AT hook motif (SERGSKSPLKRAQEQSPRKRGRPPKDEKDLTIPES; also: fused to dimerising Fc or GST) | – | – | but not NP.d7 or NP.d9, significantly enhances LSD2 histone demethylase activity | but not NP.d7 (residues 152-186, containing the AT hook motif, lane 4), is sufficient for LSD2 interaction
NP.d2: GST-tagged NPAC truncation, residues 1-252 (protein, left off: a dimerising Fc or GST) MAAVSLRLGDLVWGKLGRYPPWPGKIVNPPKDLKKPRGKKCFFVKFFGTEDHAWIKVEQLKPYHAHKEEMIKINKGKRFQQAVDAVEEFLRRAKGKDQTSSHNSSDDKNRRNSSEERSRPNSGDEKRKLSLSEGKVKKNMGEGKKRVSSGSSERGSKSPLKRAQEQSPRKRGRPPKDEKDLTIPESSTVKGMMAGPMAAFKWQPTASEPVKDADPHFHHFLLSQTEKPAVCYQAITKKLKICEEETGSTSIQ | – | – | significantly enhance LSD2 demethylase activity | capable of directly interacting with LSD2
NP.d1: GST-tagged NPAC truncation, PWWP domain, residues 1-150 (protein, left off: a dimerising Fc or GST) MAAVSLRLGDLVWGKLGRYPPWPGKIVNPPKDLKKPRGKKCFFVKFFGTEDHAWIKVEQLKPYHAHKEEMIKINKGKRFQQAVDAVEEFLRRAKGKDQTSSHNSSDDKNRRNSSEERSRPNSGDEKRKLSLSEGKVKKNMGEGKKRVSSG | – | – | Neither the PWWP domain (SEQ ID NO: 63) (NP.d1, residues 1-150) nor the dehydrogenase domain (NP.d5, residues 262-553) stimulated LSD2 | Neither the PWWP domain (SEQ ID NO: 63) (NP.d1) nor the dehydrogenase domain (NP.d5) interacts with LSD2
NP.d5: GST-tagged NPAC truncation, dehydrogenase domain, residues 262-553 (protein, left off: a dimerising Fc or GST) SITPTDKKIGFLGLGLMGSGIVSNLLKMGHTVTVWNRTAEKCDLFIQEGARLGRTPAEVVSTCDITFACVSDPKAAKDLVLGPSGVLQGIRPGKCYVDMSTVDADTVTELAQVIVSRGGRFLEAPVSGNQQLSNDGMLVILAAGDRGLYEDCSSCFQAMGKTSFFLGEVGNAAKMMLIVNMVQGSFMATIAEGLTLAHVTGQSQQTLLDILNQGQLASIFLDQKCQNILQGNFKPDFYLKYIQKDLRLAIALGDAVNHPTPMAAAANEVYKRAKALDQSDNDMSAVYRAYIH | – | – | Neither the PWWP domain (SEQ ID NO: 63) (NP.d1, residues 1-150) nor the dehydrogenase domain (NP.d5, residues 262-553) stimulated LSD2 | Neither the PWWP domain (SEQ ID NO: 63) (NP.d1) nor the dehydrogenase domain (NP.d5) interacts with LSD2
NP.d6: NPAC with deletion of the linker region (residues 152-252) (protein, left off: a dimerising Fc or GST; small tags and cut ends) MAAVSLRLGDLVWGKLGRYPPWPGKIVNPPKDLKKPRGKKCFFVKFFGTEDHAWIKVEQLKPYHAHKEEMIKINKGKRFQQAVDAVEEFLRRAKGKDQTSSHNSSDDKNRRNSSEERSRPNSGDEKRKLSLSEGKVKKNMGEGKKRVSSGSAADSTAVNGSITPTDKKIGFLGLGLMGSGIVSNLLKMGHTVTVWNRTAEKCDLFIQEGARLGRTPAEVVSTCDITFACVSDPKAAKDLVLGPSGVLQGIRPGKCYVDMSTVDADTVTELAQVIVSRGGRFLEAPVSGNQQLSNDGMLVILAAGDRGLYEDCSSCFQAMGKTSFFLGEVGNAAKMMLIVNMVQGSFMATIAEGLTLAHVTGQSQQTLLDILNQGQLASIFLDQKCQNILQGNFKPDFYLKYIQKDLRLAIALGDAVNHPTPMAAAANEVYKRAKALDQSDNDMSAVYRAYIH | – | – | abolishes cofactor activity | abolishes NPAC-LSD2 interaction
NP.d3: GST-tagged NPAC truncation, residues 152-252 (protein, left off: a dimerising Fc or GST) SERGSKSPLKRAQEQSPRKRGRPPKDEKDLTIPESSTVKGMMAGPMAAFKWQPTASEPVKDADPHFHHFLLSQTEKPAVCYQAITKKLKICEEETGSTSIQ | – | – | significantly enhance LSD2 demethylase activity | capable of directly interacting with LSD2
NP.d4: GST-tagged NPAC truncation, residues 152-553 (protein, left off: a dimerising Fc or GST) SERGSKSPLKRAQEQSPRKRGRPPKDEKDLTIPESSTVKGMMAGPMAAFKWQPTASEPVKDADPHFHHFLLSQTEKPAVCYQAITKKLKICEEETGSTSIQAADSTAVNGSITPTDKKIGFLGLGLMGSGIVSNLLKMGHTVTVWNRTAEKCDLFIQEGARLGRTPAEVVSTCDITFACVSDPKAAKDLVLGPSGVLQGIRPGKCYVDMSTVDADTVTELAQVIVSRGGRFLEAPVSGNQQLSNDGMLVILAAGDRGLYEDCSSCFQAMGKTSFFLGEVGNAAKMMLIVNMVQGSFMATIAEGLTLAHVTGQSQQTLLDILNQGQLASIFLDQKCQNILQGNFKPDFYLKYIQKDLRLAIALGDAVNHPTPMAAAANEVYKRAKALDQSDNDMSAVYRAYIH | – | – | significantly enhance LSD2 demethylase activity | capable of directly interacting with LSD2
